Reference: the supplement of paper PMC6755084

B1: F1*; the commonest letter at each place (parent)
chain: GAGACCGCAACTGAAAAGTTGTTATCACTTGTCGTAAGACACTTTGGATGGGTTGAAGTTCTGCACGTAGAAGCAAAAGGC

Variants of: B1
Assay: fraction ligated after 30 min (ligated reads / total reads); higher = more ligase activity
Details: with F1*sub RNA substrate (template-directed ligation), 42 °C
How it was run: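 Ligase ribozyme variants were made from oligo-pool templates by PCR amplification, T7 transcription and gel purification. After gel separation, ligated and unligated bands were reverse transcribed with barcoded primers and sequenced on a MiSeq, with core bases filtered at quality ≥20. The fraction ligated for each variant was the number of ligated reads divided by total reads.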

In order of falling fraction ligated:
1. A37G G38A  0.882
2. C33T A37G  0.878
3. T35G G38C  0.865
4. T23G C40T  0.864
5. A36G A37G  0.864
6. C26T T30G  0.861
7. T35A A37T  0.86
8. T32A T35A  0.855
9. A37T A57C  0.854
10. G38A A39G  0.854
11. G34T  0.848
12. A27G T35A  0.847
13. T30G T35G  0.847
14. T30A C40A  0.845
15. T29A G31C  0.842
16. T35C T44C  0.841
17. G34C C42G  0.84
18. T29C T43A  0.839
19. T35G A57G  0.838
20. T23A C40G  0.838
21. T35A G46A  0.837
22. A41T C42G  0.836
23. C26T G46A  0.835
24. T35A G55T  0.834
25. A39T  0.833
26. T29G G46A  0.832
27. A37C A57T  0.831
28. T30A G31T  0.831
29. A27C C42G  0.831
30. G38T T44C  0.831
31. G55T  0.83
32. C26T A36G  0.828
33. A36C T44G  0.827
34. C28T T29G  0.825
35. T30G G34A  0.825
36. A37T T44G  0.825
37. T23G T29A  0.824
38. A39G A48T  0.824
39. T29C A37G  0.824
40. C40T A57C  0.823
41. T32A C33G  0.823
42. A39C T43A  0.822
43. C42A G46A  0.821
44. T23C C33G  0.819
45. T35C A41T  0.819
46. C42T T43G  0.818
47. T30C T32C C33G G38C A39G A41G  0.816
48. C26T G55T  0.815
49. T32G A37C  0.815
50. G38C C40G  0.813
51. G31A  0.812
52. T23A T35C  0.811
53. T23A A37T  0.811
54. T32A C33A  0.811
55. A27G A37T  0.81
56. A27C A39G  0.809
57. T30C T44A  0.807
58. A27T G34A  0.806
59. G34C A37C  0.806
60. A24C T49A  0.805
61. G34T A56C  0.805
62. T25C C28T  0.803
63. T29G T35C  0.803
64. T30G T45C  0.803
65. A24G G46A  0.803
66. C28T G46A  0.802
67. C26T T32G  0.801
68. C28A A57G  0.8
69. A37G A48T  0.799
70. A27C T44G  0.798
71. G34A T45A  0.797
72. A37C G47A  0.796
73. G34A T45C  0.795
74. T29C A56T  0.795
75. G31T G34T  0.793
76. T23G A56G  0.792
77. A39G T45C  0.792
78. T45G A57C  0.791
79. T35G A48G  0.79
80. A27G G55T  0.79
81. G31C  0.79
82. A27G T29C  0.788
83. T25C T44A  0.788
84. A24T A37T  0.786
85. A36C G46C  0.784
86. C40G A41C  0.784
87. A36T T45C  0.783
88. T25C C28G  0.78
89. G31C G34A  0.78
90. G31A A39C  0.78
91. T49G  0.778
92. T30A A57C  0.778
93. T35C T43C  0.777
94. C42G T49G  0.777
95. A27G C28G  0.777
96. G34A A56G  0.775
97. G47A A57G  0.774
98. C26G  0.773
99. C26A C42A  0.773
100. G34A A48C  0.772
101. T23G A56T  0.772
102. T23A T32C  0.771
103. C40G A48C  0.768
104. A41G G46C  0.768
105. A41C T43C  0.766
106. C40T A48C  0.763
107. G31T A41G  0.761
108. G38T T49G  0.76
109. A24C T44A  0.759
110. A37C A41C  0.759
111. T35C T49A  0.756
112. T35G A48C  0.755
113. T25A T35A  0.751
114. T25A  0.749
115. A41G A48C  0.736
116. T23A A48C  0.727
117. C28A T45A  0.698
118. C33G T45A  0.689
119. A24T T43A  0.678
120. T43C A48T  0.668
121. T43C T49G  0.665
122. T35G G50A  0.659
123. T25A C40T  0.647
124. A27C T45A  0.598
125. T30G T49C  0.526
126. T35A G50C  0.474
127. A24C G38T  0.468
128. C26G G38A  0.446
129. T25G G55A  0.442
130. T25G A27G  0.434
131. C26T G31C  0.408
132. G46C T49G  0.407
133. T49G G50A  0.388
134. G34T T45G  0.385
135. T25G T30C  0.372
136. C42G G50A  0.372
137. A24C A57C  0.368
138. A24G T25G  0.368
139. G34C G47C  0.365
140. T23G G47T  0.346
141. G46C T49A  0.344
142. A27G G47T  0.329
143. G38C G55C  0.321
144. T45C G46C  0.268
145. C26G C40A  0.248
146. G47C  0.236
147. T30A G50A  0.22
148. C26A T49A  0.216
149. A24G G31A  0.202
150. T30C T45G  0.174
151. G31A A56C  0.161
152. T30G G47T  0.15
153. G38T G47T  0.139
154. G50T G55T  0.123
155. T29C T49C  0.104
156. T25G G50A  0.103
157. G47C A57C  0.0685
158. G47C A56C  0.0635
159. G31C G50A  0.057
160. G46T G50A  0.0502
161. T49C A56C  0.0481
162. A24C A48T  0.0426
163. G31T G50A  0.0382
164. C26A T45G  0.0382
165. G47T A56G  0.0352
166. G31T T49C  0.0332
167. A24C G47C  0.00476
